Assay results reported in patent publication US11054425B2, “System and method for identification and characterization of transglutaminase species” (Roche Sequencing Solutions, Inc., priority 2014, dated 2021).

Key:
[1] = tested on: KalbTG and S. mobaraensis MTG; assay: dual site-specific labeling with Cy3 and Cy5 labels; format: biochemical; settings: KalbTG + Cy3 label 30 min, then S. mobaraensis MTG + Cy5 label 15 min
Method: Turning to FIG. 6C, the high sequence specificity of KalbTG was used to conjugate a 6 kDa Cy3 label to the YRYRQ (SEQ ID NO:1) site of a 7 kDa substrate peptide comprising both the KalbTG and S. mobaraensis MTG glutamine-containing motifs. The reaction was run for 30 minutes to saturate the YRYRQ (SEQ ID NO:1) site. Analysis by SDS-PAGE confirmed that the label was integrated at a single site. The substrate peptide was subsequently incubated for 15 minutes with S. mobaraensis MTG and a 6 kDa Cy5 label. […] Accordingly, KalbTG may be useful for the industrial-scale synthesis of complex protein conjugates of interest in therapeutic or diagnostic applications.
For the orthogonal labeling experiment, a molecule containing both KalbTG and MTG Q-tags was chemically synthesized to have the primary chemical structure:
(§1) If not noted otherwise, labeling reactions were performed for 15 minutes at 37° C. in the presence of 72 μM substrate protein, 720 μM label peptide and 1 μM transglutaminase in 200 mM MOPS pH 7.2 and 1 mM EDTA. […] Samples were taken between incubation steps and analyzed by SDS-PAGE, in-gel fluorescence (BioRad ChemiDoc gel documentation system, Cy3 and Cy5 LED and filter sets). […] The mixture was filtered (0.2 μm spin filter) and analyzed by LC-MS with UV detection at 214 nm and 305 nm.

[2] = tested on: Z-[GGGYRYRQGGGG (SEQ ID NO:75)]-OH; assay: GLDH assay of transglutaminase enzyme activity after storage; format: biochemical; settings: as measured by GLDH assay
Method: A further experiment was performed to determine the activity of KalbTG enzymes prepared from two different constructs, and stored at two different temperatures. The KalbTGt3 (SEQ ID NO:10) and KalbTGt1 (SEQ ID NO: 12) enzymes tested were obtained respectively from the EcSlyD2-Xa-KalbTGt3-8×His-tag construct (SEQ ID NO:8) and the EcSlyD2-Xa-KalbTGt1-8×His-tag construct (SEQ ID NO:11) described in Example 3. The activity of the two KalbTG enzymes was tested after storage at either 4° C. or −20° C. and compared against the activity of commercially available S. mobaraensis MTG according to a published protocol (Oteng-Pabi, et al., 2013. Analytical biochemistry 441(2): 169-173). In particular, assays were performed at 37° C. in 200 μl total volume. The assay mixture included 200 mM MOPS, 1 mM EDTA, and 1 mM DTT at pH 7.4. Further, α-ketoglutarate and NADH were added at a concentration of 500 μM, along with 2 U/ml GLDH, and between 0.1 μg and 1.0 μg of one of the transglutaminase enzymes. The glutamine substrate was 200 μM Z-[[…] (SEQ ID NO:75)]-OH, and the amine donor was 10 mM cadaverine, where Z represents a carboxybenzyl group. All data were collected in triplicate (average of 3 wells in a microtiter plate) and baseline activity (buffer without enzyme) subtracted.

[3] = tested on: KalbTG; assay: Cy3 labeling of Q-tagged SlyD/FKBP scaffold, SDS-PAGE; format: biochemical, Kutzneria albida; settings: 15 minute reaction, pH 6.2 to 9.0 tested
From the text: Next, the array and in-solution data were applied to perform site-specific labeling on protein substrates. The molecular chaperone SlyD is a useful scaffold for labeling approaches as epitope-containing loops can be grafted onto the FKBP domain for presentation to binders or enzymes (PCT App. Pub. No. WO 2012/150321 A1 to Andres et al.). A chimeric protein consisting of the Thermus thermophilus FKBP domain and the KalbTG recognition sequence RYRQR (SEQ ID NO:14) was produced. Labeling with a ten-fold excess of KalbTG K-tag-Cy3 and a substrate to enzyme ratio of 72:1 afforded approximately 70% yield of a labeled protein species after 15 minutes (FIG. 6A). This yield remained constant over a time-course of 60 minutes. […] The molecular weight shift from 13 kDa to 19 kDa was observed on the SDS-PAGE gel, corresponding exactly to the incorporation of a single 6 kDa label molecule. […]
as §1

[4] = differential scanning calorimetry (DSC); format: physicochemical; settings: purified and activated enzyme
Method: Initial screening at the 5 ml scale provided clear evidence that proteins with the anticipated electrophoretic mobility of full length KalbTG fusions were expressed, and that a fusion with tandem SlyD chaperones (Scholz, et al. 2005. Journal of Molecular Biology 345(5): 1229-1241) yielded the highest amount of soluble protein among all the constructs tested (FIG. 3A). The expression of this construct was further optimized by screening different incubation times and temperatures, Isopropyl β-D-1-thiogalactopyranoside (IPTG) inducer concentrations and induction times, media types and volumes. With reference to FIGS. 3B and 3C, the modular nature of the chosen fusion construct afforded the SlyD fusion protein, the pro-enzyme, and the activated enzyme by a combination of sequential purification and proteolytic cleavage steps. The expression construct 200 included, starting from N-terminus, two sequential SlyD chaperones 202, a factor Xa protease cleavage site (C1), the KalbTG pro-peptide 204, a trypsin protease cleavage site (C2) the KalbTG enzyme 206, and an 8×-histidine tag 208. The SlyD chaperones 202 are cleaved from the expression construct 200 with a factor Xa protease 210. […] The melting point of the purified and activated enzyme was determined to be 48.9° C. using differential scanning calorimetry (DSC). […]

## Z-[GGGYRYRQGGG (SEQ ID NO: 101)]-PEG27-[GIEGRG (SEQ ID NO: 102)]-PEG27-PEG27-[GGGDYALQGG (SEQ ID NO: 103)]-OH
[1]
  yield of dually labeled construct: nearly quantitative yield

B1: KalbTG: Kutzneria albida microbial transglutaminase (protein)
chain: MHKWFLRAAVVAAVGFGLPTLIATTAQAAAVAAPTPRAPLAPPLAEDRSYRTWRVEDYVEAWERYHGREMTEDERENLARGCIGVTVVNLNREDLSNPPLNLSFGSLRTAEAVQAALNKIVDTHPSPAQYEAAVAKDPILKRLKNVVKALPSWIDSAKLKASIFSKRFYSWQNPDWSEERAHTTYRPDRETDQVDMSTYRYRARPGYVNFDYGWFDQDTNTWWHANHEEPRMVVYQSTLRHYSRPLQDFDEQVFTVAFAKKD
modifications: Hypothetical_transglutaminase
notes: Kutzneria albida microbial transglutaminase
[2]
  increase in KalbTG enzymatic activity by purification process with ammonium chloride: up to 9 fold
[3]
  pH of highest labeling efficiency: 7.4
[4]
  melting point (DSC): 48.9 °C
